Test results as given in PMC11098083 (Proceedings of the National Academy of Sciences of the …, 2024).
Where two headings read alike, the source gives them in different places.

T1: HIS-tagged N-terminal of yeast Pol1 (1 to 527 AA) (yeast (S. cerevisiae), UniProt P13382 1-527)
T1 sequence (looked up): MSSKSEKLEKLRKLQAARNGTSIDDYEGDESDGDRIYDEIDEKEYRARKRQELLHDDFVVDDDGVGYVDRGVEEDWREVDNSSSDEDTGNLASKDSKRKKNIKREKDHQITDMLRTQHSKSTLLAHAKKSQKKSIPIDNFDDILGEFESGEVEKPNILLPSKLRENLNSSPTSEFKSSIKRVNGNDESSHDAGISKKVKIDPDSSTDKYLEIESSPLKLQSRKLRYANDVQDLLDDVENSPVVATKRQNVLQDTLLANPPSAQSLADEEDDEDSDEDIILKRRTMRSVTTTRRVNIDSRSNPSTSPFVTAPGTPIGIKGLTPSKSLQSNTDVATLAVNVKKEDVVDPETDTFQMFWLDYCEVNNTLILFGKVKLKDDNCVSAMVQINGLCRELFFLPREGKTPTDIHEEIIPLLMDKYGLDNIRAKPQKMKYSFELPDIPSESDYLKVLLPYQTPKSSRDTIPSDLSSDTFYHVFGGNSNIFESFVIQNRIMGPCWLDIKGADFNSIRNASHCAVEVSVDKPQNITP

B1: recombinant glutathione S-transferase (GST)-Pol32 (natural protein, yeast (S. cerevisiae), UniProt P47110 1-350, looked up)
chain: MDQKASYFINEKLFTEVKPVLFTDLIHHLKIGPSMAKKLMFDYYKQTTNAKYNCVVICCYKDQTIKIIHDLSNIPQQDSIIDCFIYAFNPMDSFIPYYDIIDQKDCLTIKNSYELKVSESSKIIERTKTLEEKSKPLVRPTARSKTTPEETTGRKSKSKDMGLRSTALLAKMKKDRDDKETSRQNELRKRKEENLQKINKQNPEREAQMKELNNLFVEDDLDTEEVNGGSKPNSPKETDSNDKDKNNDDLEDLLETTAEDSLMDVPKIQQTKPSETEHSKEPKSEEEPSSFIDEDGYIVTKRPATSTPPRKPSPVVKRALSSSKKQETPSSNKRLKKQGTLESFFKRKAK
B2: recombinant Mcm2 (GST tag removed) (natural protein)
chain: MSDNRRRRREEDDSDSENELPPSSPQQHFRGGMNPVSSPIGSPDMINPEGDDNEVDDVPDIDEVEEQMNEVDLMDDNMYEDYAADHNRDRYDPDQVDDREQQELSLSERRRIDAQLNERDRLLRNVAYIDDEDEEQEGAAQLDEMGLPVQRRRRRRQYEDLENSDDDLLSDMDIDPLREELTLESLSNVKANSYSEWITQPNVSRTIARELKSFLLEYTDETGRSVYGARIRTLGEMNSESLEVNYRHLAESKAILALFLAKCPEEMLKIFDLVAMEATELHYPDYARIHSEIHVRISDFPTIYSLRELRESNLSSLVRVTGVVTRRTGVFPQLKYVKFNCLKCGSILGPFFQDSNEEIRISFCTNCKSKGPFRVNGEKTVYRNYQRVTLQEAPGTVPPGRLPRHREVILLADLVDVSKPGEEVEVTGIYKNNYDGNLNAKNGFPVFATIIEANSIKRREGNTANEGEEGLDVFSWTEEEEREFRKISRDRGIIDKIISSMAPSIYGHRDIKTAVACSLFGGVPKNVNGKHSIRGDINVLLLGDPGTAKSQILKYVEKTAHRAVFATGQGASAVGLTASVRKDPITKEWTLEGGALVLADKGVCLIDEFDKMNDQDRTSIHEAMEQQSISISKAGIVTTLQARCSIIAAANPNGGRYNSTLPLAQNVSLTEPILSRFDILCVVRDLVDEEADERLATFVVDSHVRSHPENDEDREGEELKNNGESAIEQGEDEINEQLNARQRRLQRQRKKEEEISPIPQELLMKYIHYARTKIYPKLHQMDMDKVSRVYADLRRESISTGSFPITVRHLESILRIAESFAKMRLSEFVSSYDLDRAIKVVVDSFVDAQKVSVRRQLRRSFAIYTLGH

Assays:
Experiment in all cases: pull-down
[1] = target: T1, HIS-tagged N-terminal of yeast Pol1 (1 …)
[2] = target: T2, recombinant human histone H3.1–H4 tetramer (human, UniProt P68431 1-136; P62805 1-103)
[3] = target: B2
[4] = target: T2, recombinant human histone H3.1–H4 …; remark: listed apart in the source

Row | binding result [1] | binding result [2] | binding result [3] | binding result [4] | Binder
1 | binds | binds | binds | – | B1
2 | – | – | – | binds | B2
